“Also recorded” adds a separate entry of the source.
What was measured:
[1] = system: murine ovariectomy (OVX) model of postmenopausal osteoporosis; test: Ovariectomy (OVX) induced bone loss, prophylactic model; type: in vivo, mouse
Experimental: Micro-CT (μCT) analysis was conducted on a Scanco Medical μCT 35 system at the Citigroup Biomedical Imaging Core using the previously described parameters. (Shim et al. 2013). μCT analysis was performed by an investigator blinded to the genotypes of the animals under analysis.
For histomorphometry, mice were injected with calcein (25 mg/kg, Sigma), and undecalcified sections of the lumbar vertebrae were stained using von Kossa and TRAP as described by Fukuda et al. (2013). Static and dynamic histomorphometric analysis was performed with using the Osteomeasure Analysis System (Osteometrics) following standard nomenclature as described (Dempster et al. 2013). Bone volume/total volume (BV/TV), bone formation rate/bone surface (BFR/BS, μm^3 […] yr^−1), mineral apposition rate (MM, um Day^−1), osteoblast surface/bone surface (Ob.S/BS, %) and osteoclast number/bone perimeter (No. OC/Bpm) were analyzed.
For the prophylactic model, 12-week-old female mice (JAX) were anesthetized and bilaterally ovariectomized or sham operated. Ovariectomized mice were given twice weekly intravenous injections of 1 mg per kg body weight of SLITS or vehicle or daily subcutaneous (sc) injections of 80 ug/kg PTH (1-34) for 6 weeks starting 2 weeks after ovariectomy. […] All mice were then randomly assigned to one of four groups: Sham, OVX+vehicle, OVX+SLITS and OVX+PTH. Three days after the last injection, all of the mice were euthanized and subjected to bone analysis as described earlier.

non-skeletal vasculature = conditions: mouse, in vivo, iv
[2] = system: CD31^hiEMCN^hi endothelium; test: Flow cytometry of skeletal CD31hiEMCNhi endothelium in femurs after IV injection; type: in vivo, mouse; conditions: 8-week-old B6 mice, twice weekly IV 1 mg/kg, 21 days, femur; 1 mg/kg
Experimental: Femur and tibia were dissected from mutant mice and control groups after removing surrounding connective tissues. The metaphysis region and diaphysis regions of bone was crushed in Hanks Balanced Salt Solution (Life Technologies) containing 10 mM HOPES (pH 7.2) (CellGro) and enzymatically digested with 2.5 mg/mL Collagenase A (Roche) and 1 unit/mL Dispase II (Roche) for 15 minutes at 37° C. under gentle agitation. The resulting cell suspensions were filtered (40 μm), washed using PBS (pH 7.2) containing 0.5% BSA (Fraction V) and 2 mM EDTA. After washing, equal numbers of cells per mouse were blocked with Purified Rat Anti-Mouse CD16/CD32 (BD Biosciences) for 30 min on ice, then stained with APC-conjugated EMCN antibody (ebioscience 50-5851-80), PE-conjugated CD31 (ebioscience 12-0311-81). FITC-conjugated CD45 (Tonbo 35-0451), APC/Cy7-conjugated Ter119 (Biolegend 116223) and PerCP-Cy5.5-conjugated CD146 (BD Biosciences 562231) for 45 min on ice. After washing, cells were resuspended in PBS (pH 7.2) with 2 mM EDTA and 1 μg/mL 4-6,Diamidino-2-Phenylindole (DAPI) (live/dead exclusion) for analysis on an LSRII flow cytometer system (BD Biosciences) cytometer and analyzed using FlowJo software (TreeStar). Cell sorting was performed with a FACS Aria II SORP cell sorter (Becton Dickinson) at Weill Cornell Medical College, with exclusion of DAPI^+ cells and doublets. […]

[3] = system: bone marrow macrophages (BMMs); test: In vitro osteoclast formation assay with RANKL and recombinant SLIT3; type: cell-based, mouse
Experimental: Murine bone marrow cells were flushed from the femur and tibia of mice and cultured in petri dishes in α-MEM medium with 10% FBS and 20 ng/ml of rM-CSF. Nonadherent cells were replated into tissue culture dishes and cultured in the same medium for 3 d to obtain osteoclast precursors. The osteoclast precursors then differentiated into osteoclasts in the presence of human RAMKL (50 ng/ml; PeproTech) and M-CSF for 3 days. Peripheral blood mononuclear cells from the whole blood of healthy volunteers were isolated by density gradient centrifugation using Ficoll (Invitrogen, Carlsbad, Calif.). CD14-positive cells were purified from fresh PBMCs using anti-CD14 magnetic beads (Miltenyi Biotec, Auburn, Calif.), as recommended by the manufacturer. Human monocytes were cultured in a-MEM with 10% FBS in the presence of M-CSF (20 ng/ml; PeproTech, Rocky Hill, N.J.) for 2 d to obtain monocyte-derived macrophages. Experiments with human cells were approved by the Hospital for Special Surgery Institutional Review Board.
Osteoclast culture, differentiation assays. Western Molting and qPCR. In vitro primary osteoclast cultures, quantitative PCR, Western blotting, and TRAP staining were performed as previously described. Primary antibodies were specific for SLIT3. (1:1,000; Cell Signaling) and HSP90 (1:2,000; Sigma).

[4] = treatment initiated two weeks after OVX

B1: SLIT3: SLIT3 recombinant protein (R&D); secreted ligand of ROBO receptors (protein, UniProt O75094 34-1523, looked up)
Slit homolog 3 protein: CPTKCTCSAASVDCHGLGLRAVPRGIPRNAERLDLDRNNITRITKMDFAGLKNLRVLHLEDNQVSVIERGAFQDLKQLERLRLNKNKLQVLPELLFQSTPKLTRLDLSENQIQGIPRKAFRGITDVKNLQLDNNHISCIEDGAFRALRDLEILTLNNNNISRILVTSFNHMPKIRTLRLHSNHLYCDCHLAWLSDWLRQRRTVGQFTLCMAPVHLRGFNVADVQKKEYVCPAPHSEPPSCNANSISCPSPCTCSNNIVDCRGKGLMEIPANLPEGIVEIRLEQNSIKAIPAGAFTQYKKLKRIDISKNQISDIAPDAFQGLKSLTSLVLYGNKITEIVKGLFDGLVSLQLLLLNANKINCLRVNTFQDLQNLNLLSLYDNKLQTISKGLFAPLQSIQTLHLAQNPFVCDCHLKWLADYLQDNPIETSGARCSSPRRLANKRISQIKSKKFRCSGSEDYRSRFSSECFMDLVCPEKCRCEGTIVDCSNQKLVRIPSHLPEYVTDLRLNDNEVSVLEATGIFKKLPNLRKINLSNNKIKEVREGAFDGAASVQELMLTGNQLETVHGRVFRGLSGLKTLMLRSNLIGCVSNDTFAGLSSVRLLSLYDNRITTITPGAFTTLVSLSTINLLSNPFNCNCHLAWLGKWLRKRRIVSGNPRCQKPFFLKEIPIQDVAIQDFTCDGNEESSCQLSPRCPEQCTCMETVVRCSNKGLRALPRGMPKDVTELYLEGNHLTAVPRELSALRHLTLIDLSNNSISMLTNYTFSNMSHLSTLILSYNRLRCIPVHAFNGLRSLRVLTLHGNDISSVPEGSFNDLTSLSHLALGTNPLHCDCSLRWLSEWVKAGYKEPGIARCSSPEPMADRLLLTTPTHRFQCKGPVDINIVAKCNACLSSPCKNNGTCTQDPVELYRCACPYSYKGKDCTVPINTCIQNPCQHGGTCHLSDSHKDGFSCSCPLGFEGQRCEINPDDCEDNDCENNATCVDGINNYVCICPPNYTGELCDEVIDHCVPELNLCQHEAKCIPLDKGFSCECVPGYSGKLCETDNDDCVAHKCRHGAQCVDTINGYTCTCPQGFSGPFCEHPPPMVLLQTSPCDQYECQNGAQCIVVQQEPTCRCPPGFAGPRCEKLITVNFVGKDSYVELASAKVRPQANISLQVATDKDNGILLYKGDNDPLALELYQGHVRLVYDSLSSPPTTVYSVETVNDGQFHSVELVTLNQTLNLVVDKGTPKSLGKLQKQPAVGINSPLYLGGIPTSTGLSALRQGTDRPLGGFHGCIHEVRINNELQDFKALPPQSLGVSPGCKSCTVCKHGLCRSVEKDSVVCECRPGWTGPLCDQEARDPCLGHRCHHGKCVATGTSYMCKCAEGYGGDLCDNKNDSANACSAFKCHHGQCHISDQGEPYCLCQPGFSGEHCQQENPCLGQVVREVIRRQKGYASCATASKVPIMECRGGCGPQCCQPTRSKRRKYVFQCTDGSSFVEEVERHLECGCLACS
With B1 as the molecule, how does the “OVX-induced bone loss (micro-CT)” value ([1]; IV twice weekly initiated two weeks after OVX) read?
Its value is “significantly countered OVX-induced bone loss; also recorded: comparable to the effects of PTH treatment; also recorded: preventive effects”.

What about the “endosteal CD31hiEMCNhi endothelium after OVX” value ([1]; L3 vertebrae) of the same molecule?
The value was “reversed the attenuation”.

And the endosteal bone formation ([1]; L3 vertebrae)?
The endosteal bone formation was “rescued”.

And the “amounts of CD31hiEMCNhi vasculature in vivo” value ([1]; treatment for six weeks in vivo)?
Its value is “increase amounts”.

And the cortical thickness [1, 4]?
Its cortical thickness is “increased”.

What about the “trabecular BV/TV” value [1, 4] of the same molecule?
Its value is “increased”.

And the brain ultrastructure (non-skeletal vasculature)?
Its brain ultrastructure is “no changes”.

And the “levels of skeletal CD31hiEMCNhi endothelium in vivo” value [2]?
Its value is “increased levels; also recorded: induces production”.

What about the “number of TRAP positive osteoclasts compared with controls” value ([3]; BMMs with RANKL and recombinant SLIT3, three days) of the same molecule?
The value was “no significant changes”.

What about the “expression of osteoclast marker genes” value ([3]; BMMs with RANKL, three days) of the same molecule?
Its value is “modestly inhibited”.
